Experimental data taken from US8431396B2, “Anti-angiogenic peptides” (The Cleveland Clinic Foundation, priority 2003, dated 2013).

Columns and labels:
[1] = target: T1, KDR (Homo sapiens, UniProt P35968); assay: VEGF-stimulated KDR tyrosine phosphorylation in membrane fractions (Western blot); assay type: cell-based; details: mutant cells; data not shown
T1 construct: To determine whether these receptor isoforms represent full-length VEGFR-2; expressed in transfected cells; host or cells: porcine aortic endothelial (PAE) cells
T1 sequence (P35968 20-1356): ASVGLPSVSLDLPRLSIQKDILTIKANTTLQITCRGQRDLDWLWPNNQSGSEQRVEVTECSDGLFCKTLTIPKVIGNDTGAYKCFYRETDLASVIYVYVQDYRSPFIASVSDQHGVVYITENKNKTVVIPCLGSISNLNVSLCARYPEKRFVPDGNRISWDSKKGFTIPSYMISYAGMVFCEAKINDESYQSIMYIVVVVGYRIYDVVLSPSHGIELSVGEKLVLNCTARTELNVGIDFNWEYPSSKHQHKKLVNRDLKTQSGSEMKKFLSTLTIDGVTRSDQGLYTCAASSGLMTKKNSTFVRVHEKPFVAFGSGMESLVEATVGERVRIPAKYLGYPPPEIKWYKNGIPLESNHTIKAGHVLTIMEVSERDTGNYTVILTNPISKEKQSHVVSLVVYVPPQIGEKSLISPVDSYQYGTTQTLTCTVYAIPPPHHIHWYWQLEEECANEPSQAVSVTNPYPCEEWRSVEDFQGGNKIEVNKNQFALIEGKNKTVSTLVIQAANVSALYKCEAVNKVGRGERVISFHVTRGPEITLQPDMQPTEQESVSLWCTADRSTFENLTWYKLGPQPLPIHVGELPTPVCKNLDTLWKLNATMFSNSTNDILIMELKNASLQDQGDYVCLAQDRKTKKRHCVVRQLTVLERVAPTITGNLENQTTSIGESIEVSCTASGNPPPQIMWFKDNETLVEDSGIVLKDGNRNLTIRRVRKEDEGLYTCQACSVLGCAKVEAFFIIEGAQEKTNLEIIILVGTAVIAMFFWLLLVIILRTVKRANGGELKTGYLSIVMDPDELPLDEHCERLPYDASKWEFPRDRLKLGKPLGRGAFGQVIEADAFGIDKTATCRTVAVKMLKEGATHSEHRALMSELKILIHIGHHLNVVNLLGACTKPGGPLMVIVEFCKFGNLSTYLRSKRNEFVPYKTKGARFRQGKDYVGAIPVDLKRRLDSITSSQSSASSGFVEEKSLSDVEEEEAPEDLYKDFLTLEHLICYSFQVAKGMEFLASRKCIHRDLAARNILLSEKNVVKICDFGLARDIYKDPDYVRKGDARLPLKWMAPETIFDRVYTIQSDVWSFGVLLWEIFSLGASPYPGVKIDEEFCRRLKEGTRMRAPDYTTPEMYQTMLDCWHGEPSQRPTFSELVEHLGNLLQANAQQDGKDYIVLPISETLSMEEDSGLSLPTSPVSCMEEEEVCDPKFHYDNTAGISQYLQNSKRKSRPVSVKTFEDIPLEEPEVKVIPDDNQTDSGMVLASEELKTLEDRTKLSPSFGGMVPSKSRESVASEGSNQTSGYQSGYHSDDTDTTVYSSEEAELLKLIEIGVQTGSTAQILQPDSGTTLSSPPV
Method: 2 day serum free conditioned medium (CM) was collected from subconfluent cells cultured on six-well plates (Costar). In some cases the CM was further concentrated with heparin-agarose gels (Bio-rad). The cell monolayer was dislodged from the culture plates following a 10 min incubation in Ca2+, Mg2+ free phosphate buffered saline (PBS) containing 2.5 mM EDTA. After several rinses in PBS and water, the ECM was scraped in a small volume of electrophoresis sample buffer without reducing agent for analyses. Plasma membrane (PM) fractions were prepared from cells centrifuged at 500 g and 4° C. for 5 min The supernatant was discarded and the cell pellets were resuspended in PBS containing protease inhibitors, lysed with a 26-gauge syringe needle, and centrifuged at 3,000 g at 4° C. for 15 minutes. The supernatant was centrifuged at […] at 4° C. for 1 hr. The PM pellets were suspended in lysis buffer containing protease inhibitors. In some instances the membrane fraction of cells was prepared using ProteoExtract Subcellular Proteome Extaction Kit (EMD Biosciences, Inc).
Cell fractions or immunoprecipitates of the lysates with the indicated antibodies were subjected to SDS-PAGE. Proteins were detected with either a HRP-conjugated anti-rabbit or anti mouse IgG antibody (Amersham Pharmacia Biotech., Piscataway, N.J.) followed by ECL. […]

[2] = system: soluble VEGFR-2; assay: Soluble VEGFR-2 (sKDR) in conditioned medium (ELISA); assay type: cell-based, human; details: mutant cells; data not shown
[3] = system: PAEKDR cells; assay: VEGF-stimulated migration (modified Boyden chamber) of transfected PAEKDR cells; assay type: cell-based, porcine; details: VEGF 50 ng/ml
Method: A modified Boyden chamber assay was carried out as described previously 34. Briefly, 8.0 μm pore PVPF polycarbonate membranes were pre-coated with 100 μg/ml collagen type I in 0.2 N acetic acid (Cohesion technologies, INC. Pala Alto, Calif.). […] Chamber was then incubated for 4 hrs at 37° C. in a 5% CO2 humidified incubator. Cells remaining on the top of the filter were removed. Cells on the bottom surface of the filter were fixed, stained and mounted. The number of migrating cells per well was counted microscopically.

[4] = system: ERK1 (p44) and ERK2 (p42); assay: VEGF-stimulated ERK1/2 phosphorylation in transfected PAEKDR cells (Western blot); assay type: cell-based; details: mutant cells; data not shown
Method: Cell fractions or immunoprecipitates of the lysates with the indicated antibodies were subjected to SDS-PAGE. Proteins were detected with either a HRP-conjugated anti-rabbit or anti mouse IgG antibody (Amersham Pharmacia Biotech., Piscataway, N.J.) followed by ECL. The blots were restripped with Western ReProbe™ solution (Genotech) for 30 minutes and reprobed as indicated.
Activation of MAP kinase is a known activated VEGFR-2 downstream signaling event. We measured the phosphorylation of two MAP kinases, ERK1 (p44) and ERK2 (p42) by western blot analysis of membrane fractions in WT and mutant ECs.

[5] = target: T2, VEGFR-2 (KDR) (Homo sapiens, UniProt P35968); assay: [125I]VEGF binding in transfected PAEKDR cell lines; details: PAEKDR cells expressing mutant TIMP3 vs vector
T2 construct: To determine whether these receptor isoforms represent full-length VEGFR-2; expressed in transfected cells; host or cells: porcine aortic endothelial (PAE) cells
T2 sequence (P35968 20-1356): as above
Method: PAEKDR cells were transfected with TIMP3 cDNA or empty vector using Lipofectamine reagent (Gibco-BRL Rockville, Md.). Stable clones were isolated using Hygromycin selection.
After washing, the cell monolayers were solubilized with lysis buffer (20 mM Tris HCl pH 7.5, 1% triton X 100 and 10% glycerol), and the radioactivity measured in a gamma counter.

[6] = system: surface KDR; assay: Surface KDR immunofluorescence staining; assay type: cell-based; details: clone KDR-2 antibody; data not shown
Method: (§1) For immunostaining, subconfluent cells cultured on Falcon cultureslides (BD, Biosciences) were used. For surface KDR detection, cells were fixed in 1% paraformaldehyde for 10 min at 4° C. Following blocking with 1% BSA cells were incubated with anti-extracellular VEGFR-2 monoclonal antibody for 1 h at room temperature. Surface KDR was detected with biotinylated anti-mouse […] (1:1000) and Texas Red avidin D (1:1500) using standard procedures. […] The cells were fixed with 3.7% paraformaldehyde in PBS for 30 min at 4° C. and permeabilized with 0.2 Triton X-100 for 20 min at room temperature. Following rinsing with PBS the cells were incubated with fluorescein isothiocyanate (FITC)-labeled phalloidin in PBS (0.66 μg/ml, Sigma) for 20 min at room temperature washed with PBS and analyzed by fluorescence microscopy.

[7] = system: PAEKDR cells; assay: Tube formation assay in type 1 collagen gels; assay type: cell-based, porcine; details: 50 ng/ml VEGF; three-dimensional collagen gels
Method: Type 1 collagen was mixed with 10×DMEM and 0.1 M NaOH (8:1:1), adjusted to a solution containing 10 μg/ml growth factor reduced matrigel matrix (BD, Biosciences), and then distributed in 48-well dishes. […] After 4 h of incubation at 37° C., a second layer of collagen was added, and cultures were kept under the same conditions as above described. Tube formation was examined using a phase-contrast microscopy at the indicated time points.

[8] = system: PAEKDR cells; assay: VEGF-stimulated actin reorganization / membrane ruffles; assay type: cell-based, porcine; details: 50 ng/ml VEGF for 15 min
Method: as §1

[9] = system: MMPs; assay: Reverse zymography of ECM and CM of transfected PAEKDR cells; assay type: biochemical; details: PAEKDR cells expressing WT or mutant TIMP3
Method: Conditioned medium, cell lysates and ECM fractions from transfected cells were prepared as described previously (Qi et al., 2002). Equal amounts of protein were loaded onto a 12% gel with 1 mg/ml gelatin plus RPE cell-conditioned media, as a source of MMPs, for reverse zymography and processed as described previously (Pavloff et al., 1992).

- level of phosphorylated KDR after VEGF stimulation vs mock cells [1]: ~2 fold
- increase in [125I] VEGF binding [5]: 2-3 fold
B1: mutant TIMP3: Sorsby fundus dystrophy-related S156C mutant TIMP3 expressed in PAEKDR endothelial cells (protein)
chain: CTCSPSHPQDAFCNSDIVIRAKVVGKKLVKEGPFGTLVYTIKQMKMYRGFTKMPHVQYIHTEASESLCGLKLEVNKYQYLLTGRVYDGKMYTGLCNFVERWDQLTLSQRKGLNYRYHLGCNCKIKSCYYLPCFVTSKNECLWTDMLSNFGYPGYQCKHYACIRQKGGYCSWYRGWAPPDKSIINATDP
- cleaved sVEGFR-2 in the CM, more than mock cells [2]: 7- to 8 fold
- VEGF-stimulated migration of cells expressing TIMP3 variant [3]: accentuated migratory response towards VEGF
- increase of VEGF-stimulated ERK1/2 phosphorylation [4]: 2-3 fold
- surface KDR labeling relative to empty vector or WT-TIMP3 cells [6]: increased fluorescent labeling for surface KDR
- VEGF-stimulated tube formation [7]: forming extensive tubular networks, but by day 5 the tubular structures started to regress and collapse
- VEGF-stimulated formation of membrane ruffles [8]: a majority of mutant cells showed more striking edge ruffles
- MMP inhibitory activity in ECM and CM (reverse zymography) [9]: minimal MMP inhibitory activity
